From patent US20240368668A1, “SUBSTRATES AND BIOMARKERS OF ADAMTS7” (The Broad Institute, Inc., priority 2021, published 2024)
Square brackets hold non-standard residues; d marks the D form. Ends that are not written are not given here. Met(O) = CS(=O)CC[C@H](N)C(=O)O

Target: T1, mouse ADAMTS7 (Mus musculus, UniProt Q68SA9, E373Q)
T1 construct: Full-length mouse Adamts7 1-1857 (Uniprot Q68SA9, WT or E373Q catalytic mutant); expressed in transfected cells; host or cells: Human Coronary Artery Smooth Muscle Cells (HCA-SMC, Lonza), adenovirus 50 MOI
T1 sequence (Q68SA9 221-1657 E373Q): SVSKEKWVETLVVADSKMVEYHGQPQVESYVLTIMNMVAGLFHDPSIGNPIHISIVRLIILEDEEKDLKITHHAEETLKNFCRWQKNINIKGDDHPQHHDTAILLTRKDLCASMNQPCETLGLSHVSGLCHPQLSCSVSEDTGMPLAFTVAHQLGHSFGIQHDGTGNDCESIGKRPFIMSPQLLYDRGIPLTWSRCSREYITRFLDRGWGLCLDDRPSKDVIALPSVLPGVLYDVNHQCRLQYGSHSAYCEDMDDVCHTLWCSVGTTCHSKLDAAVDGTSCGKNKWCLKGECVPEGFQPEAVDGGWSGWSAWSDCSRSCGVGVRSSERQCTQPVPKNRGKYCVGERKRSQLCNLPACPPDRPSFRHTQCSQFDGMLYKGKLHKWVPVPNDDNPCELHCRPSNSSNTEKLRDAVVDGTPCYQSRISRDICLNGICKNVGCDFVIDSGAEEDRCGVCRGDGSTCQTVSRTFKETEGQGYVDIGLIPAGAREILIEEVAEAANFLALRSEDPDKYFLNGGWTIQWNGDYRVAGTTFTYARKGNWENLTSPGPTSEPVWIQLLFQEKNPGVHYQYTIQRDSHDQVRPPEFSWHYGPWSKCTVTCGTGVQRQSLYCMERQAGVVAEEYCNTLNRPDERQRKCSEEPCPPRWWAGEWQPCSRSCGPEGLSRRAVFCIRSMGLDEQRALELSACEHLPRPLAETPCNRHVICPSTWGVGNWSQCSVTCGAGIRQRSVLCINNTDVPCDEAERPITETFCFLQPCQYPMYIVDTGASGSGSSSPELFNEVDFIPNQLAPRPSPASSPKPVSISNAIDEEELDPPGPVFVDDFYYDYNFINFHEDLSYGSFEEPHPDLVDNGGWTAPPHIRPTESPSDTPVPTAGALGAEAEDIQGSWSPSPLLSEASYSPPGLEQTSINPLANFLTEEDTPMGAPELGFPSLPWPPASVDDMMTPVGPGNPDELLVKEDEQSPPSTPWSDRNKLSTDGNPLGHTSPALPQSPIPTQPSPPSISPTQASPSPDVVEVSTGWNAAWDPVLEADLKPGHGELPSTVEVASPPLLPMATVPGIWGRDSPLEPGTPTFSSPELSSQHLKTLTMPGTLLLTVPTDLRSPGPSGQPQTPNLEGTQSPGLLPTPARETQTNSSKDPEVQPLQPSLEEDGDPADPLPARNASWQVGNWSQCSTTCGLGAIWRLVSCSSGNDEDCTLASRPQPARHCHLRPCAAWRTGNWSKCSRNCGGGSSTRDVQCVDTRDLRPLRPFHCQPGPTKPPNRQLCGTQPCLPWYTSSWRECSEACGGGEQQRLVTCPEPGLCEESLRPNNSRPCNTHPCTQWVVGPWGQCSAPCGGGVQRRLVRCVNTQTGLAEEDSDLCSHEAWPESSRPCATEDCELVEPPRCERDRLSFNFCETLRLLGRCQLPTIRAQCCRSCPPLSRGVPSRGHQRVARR
Experiment: TMT10 TAILS N-terminomics, HUVEC experiment (process replicates, trypsin/AspN digest)
Assay type: cell-based, human
Details: HUVEC TAILS HC; log fold change of N-terminal peptide, Ad-mADAMTS7 EQ over Luc
Method in brief: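 Full-length mouse ADAMTS7 (WT or E373Q mutant, C-terminal 3xFLAG) or luciferase was transduced via adenovirus, 50 MOI, into HCA-SMC (SMC1, SMC2) or HUVEC. SMC1: pooled media, technical triplicates 400 ug; SMC2: process triplicates 300 ug; HUVEC: process triplicates 200 ug, bFGF2 10 ng/ml.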

logFC.mEQ.over.Luc	Substance
−0.39	ASMT_321 (LSSAGFR; listed as Homo sapiens)
−0.08	BICD1_280 (NNDDKMNGHIHGPLVKLNGDYR; listed as Homo sapiens)
−0.08	CLU_267 (FQHPPTEFIR; listed as Homo sapiens)
−0.45	CTGF_173 (TVVGPALAAYR; listed as Homo sapiens)
−0.31	CTGF_174 (VVGPALAAYR; listed as Homo sapiens)
−0.16	FN1_1624 (LVQTAVTTIPAPT; listed as Homo sapiens)
−0.19	FN1_1743 (WESPQGQVSR; listed as Homo sapiens)
−0.49	LTBP2_129 (QQQPAPR; listed as Homo sapiens)
−0.09	LTBP2_253 (GEGTLAR; listed as Homo sapiens)
−0.39	LTBP3_164 (LSTGALPPLAPEG; listed as Homo sapiens)
−0.13	LTBP3_205 (HAAFLVPLGPGQISA; listed as Homo sapiens)
−0.39	LTBP3_221 (VQAPPPVVNVR; listed as Homo sapiens)
0.14	MCFD2_55 (HLEGVINKPEA; listed as Homo sapiens)
−0.06	PSAP_301 (LVEPIKKH; listed as Homo sapiens)
0.06	PTBP1_376 (AAAAAGR; listed as Homo sapiens)
−0.34	PZP_578 (HAHLQVAAAPQSLCALR; listed as Homo sapiens)
−0.01	THBS1_630 (FGQGVEHATANK; listed as Homo sapiens)
0.01	UQCRH_76 (HGSPNNSERAMRAVGE[Met(O)]CKGPGAAR; listed as Homo sapiens)
0.18	ZYX_244 (PVSLANTQPR; listed as Homo sapiens)
